Target: PAX2 (UniProt Q02962)
Test: co-IP, FLAG-PAX2 with HA-AFF4
Conditions: reference: wild type; sites S388

For AFF4 (from UniProt Q9UHB7) S388A, the “binding against the reference” value was “weaker”.

Source: paper PMC10092763
